Source: paper PMC9188544, “Mechanism of glycogen synthase inactivation and interaction with glycogenin” (Nature Communications, 2022)
Numbering of substitutions follows the chain as printed. Names may count otherwise. Values belong to the binder of their own block, whether it stands above or below them.

Columns and labels:
[1] = target: T1, human glycogenin 1 (GN1) Y195F, full length, non-glucosylated (human, UniProt P46976-2 1-333, Y195F); assay: mass photometry; purified co-expressed complex diluted to 50 nM in 25 mM HEPES pH 7.5, 150 mM NaCl, 1 mM TCEP; Refyn OneMP, 60 s movies; details: both partners purified
T1 construct: glycogenin 1, human, encoded by GYG1, cDNA NM 001184720, full length; expected ~37.5 kDa; the C-terminal GN34 region is modelled as residues 300-332, which fits the 333-residue isoform; Cloned in pFL (with untagged GS) and in pFastBac (co-infected with His6-TEV-GS WT or mutants); Both carry an N-terminal His6 tag and a cleavable site, so they are treated as one molecule; also called GN(Y195F); GN …
T1 sequence (looked up): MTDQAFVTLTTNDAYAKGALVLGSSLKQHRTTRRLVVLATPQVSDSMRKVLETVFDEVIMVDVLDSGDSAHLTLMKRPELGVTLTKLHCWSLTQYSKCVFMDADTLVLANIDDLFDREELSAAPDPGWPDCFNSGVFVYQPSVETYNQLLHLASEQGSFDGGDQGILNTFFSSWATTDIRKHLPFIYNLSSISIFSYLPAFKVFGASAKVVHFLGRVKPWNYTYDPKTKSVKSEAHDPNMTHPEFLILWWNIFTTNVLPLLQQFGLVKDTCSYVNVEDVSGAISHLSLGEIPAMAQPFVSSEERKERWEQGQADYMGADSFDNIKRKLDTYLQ

[2] = target: the molecule itself; assay: cryo-EM structure; purified GS-GN (WT) complex at 0.36 mg/mL (2.97 μM), 8% glycerol; map at 6.0 Å
[3] = target: T2, human glycogenin 1 (GN1), full length, wild type, glucosylated (human, UniProt P46976-2 1-333, auto-glucosylated at tyrosine 195 (heterogeneous glucose chains; smear on SDS-PAGE, PAS positive)); assay: negative-stain electron microscopy; purified co-expressed complex at 0.01-0.02 mg/mL in 25 mM HEPES pH 7.5, 150 mM NaCl, 1 mM TCEP, 10% glycerol; uranyl acetate stain; 2D classes and 3D map (C1, ~22 Å); details: both partners purified
T2 construct: glycogenin 1, human, encoded by GYG1, cDNA NM 001184720, full length; expected ~37.5 kDa; the C-terminal GN34 region is modelled as residues 300-332, which fits the 333-residue isoform; The isoform is inferred from the printed transcript id, the ~37.5 kDa size and the GN34 numbering; also called GN WT; HsGN; not shown: His6, N-terminal, cleaved
T2 sequence (looked up): T1 sequence (looked up) with F195Y

[4] = target: the molecule itself; assay: mass photometry; purified co-expressed complex diluted to 50 nM in 25 mM HEPES pH 7.5, 150 mM NaCl, 1 mM TCEP; Refyn OneMP, 60 s movies
[5] = target: T3, human glycogenin 1 (GN1), full length, wild type, glucosylated (human), P46976; assay: negative-stain electron microscopy; purified co-expressed complex at 0.01-0.02 mg/mL in 25 mM HEPES pH 7.5, 150 mM NaCl, 1 mM TCEP, 10% glycerol; uranyl acetate stain; 2D classes and 3D map (C1, ~22 Å); details: remark: other sources report otherwise
T3 chain: T1 sequence (looked up) with F195Y

stoichiometry N [1]: 1 GS per GN (4:4) | stoichiometry N [3]: 1 GS per GN (4:4)
B1: human glycogen synthase 1 (GS1), full length, phosphorylated, co-expressed with GN1 from the pFL vector (enzyme, UniProt P13807 1-737, looked up)
chain: MPLNRTLSMSSLPGLEDWEDEFDLENAVLFEVAWEVANKVGGIYTVLQTKAKVTGDEWGDNYFLVGPYTEQGVRTQVELLEAPTPALKRTLDSMNSKGCKVYFGRWLIEGGPLVVLLDVGASAWALERWKGELWDTCNIGVPWYDREANDAVLFGFLTTWFLGEFLAQSEEKPHVVAHFHEWLAGVGLCLCRARRLPVATIFTTHATLLGRYLCAGAVDFYNNLENFNVDKEAGERQIYHRYCMERAAAHCAHVFTTVSQITAIEAQHLLKRKPDIVTPNGLNVKKFSAMHEFQNLHAQSKARIQEFVRGHFYGHLDFNLDKTLYFFIAGRYEFSNKGADVFLEALARLNYLLRVNGSEQTVVAFFIMPARTNNFNVETLKGQAVRKQLWDTANTVKEKFGRKLYESLLVGSLPDMNKMLDKEDFTMMKRAIFATQRQSFPPVCTHNMLDDSSDPILTTIRRIGLFNSSADRVKVIFHPEFLSSTSPLLPVDYEEFVRGCHLGVFPSYYEPWGYTPAECTVMGIPSISTNLSGFGCFMEEHIADPSAYGIYILDRRFRSLDDSCSQLTSFLYSFCQQSRRQRIIQRNRTERLSDLLDWKYLGRYYMSARHMALSKAFPEHFTYEPNEADAAQGYRYPRPASVPPSPSLSRHSSPHQSEDEEDPRNGPLEEDGERYDEDEEAAKDRRNIRAPEWPRRASCTSSTSGSKRNSVDTATSSSLSTPSEPLSPTSSLGEERN
modifications: phosphoserine mapped by MS/MS at S8, S412, S641, S645, S652, S653, S657, S727, S731; phospho-S641 modelled in the cryo-EM map
notes: glycogen synthase 1 (muscle), human, encoded by GYS1, cDNA NM 002103, full length; In the pFL construct only GN carries the His tag; also called HsGS; GS WT
stoichiometry N [2]: 4

B2: human glycogen synthase 1 (GS1) R603A (enzyme, UniProt P13807 1-737, looked up)
chain: B1 chain with R603A
modifications: phosphorylation at S8, S641 and S641/S645 probed by immunoblot (Fig. 4b)
notes: glycogen synthase 1 (muscle), human, encoded by GYS1, cDNA NM 002103; also called GS R603A; not shown: His6, N-terminal, cleaved
binding result [4]: binds

B3: human glycogen synthase 1 (GS1) W18A (enzyme, UniProt P13807 1-737, looked up)
chain: B1 chain with W18A
modifications: phosphorylation at S8, S641 and S641/S645 probed by immunoblot (Fig. 4b)
notes: glycogen synthase 1 (muscle), human, encoded by GYS1, cDNA NM 002103; also called GS W18A; not shown: His6, N-terminal, cleaved
binding result [4]: binds

B4: human glycogen synthase 1 (GS1) Y600A (enzyme, UniProt P13807 1-737, looked up)
chain: B1 chain with Y600A
modifications: phosphorylation at S8, S641 and S641/S645 probed by immunoblot (Fig. 4b)
notes: glycogen synthase 1 (muscle), human, encoded by GYS1, cDNA NM 002103; also called GS Y600A; not shown: His6, N-terminal, cleaved
binding result [4]: binds

B5: human glycogen synthase 1 (GS1) H610E (enzyme, UniProt P13807 1-737, looked up)
chain: B1 chain with H610E
modifications: phosphorylation at S8, S641 and S641/S645 probed by immunoblot (Fig. 4b)
notes: glycogen synthase 1 (muscle), human, encoded by GYS1, cDNA NM 002103; also called GS H610E; not shown: His6, N-terminal, cleaved
binding result [4]: binds

stoichiometry N [5]: 2
B6: human glycogenin 1 (GN1), full length, wild type, glucosylated, P46976-2 1-333 (enzyme)
chain: T1 sequence (looked up) with F195Y
modifications: here or on the partner: auto-glucosylated at tyrosine 195 (heterogeneous glucose chains; smear on SDS-PAGE, PAS positive); auto-glucosylated at tyrosine 195 (heterogeneous glucose chains; smear on SDS-PAGE, PAS positive)
